{
  "source": "patent US20220153834A1",
  "about": "(published 2022)",
  "binders": {"B1": {"name": "3E4 (antibody, V domains shown)", "VH": "QVQLQQPGAELVKPGASVKLSCKASGYTFTSQWMHWVKQRPGQGLEWIGMIHPNSGSTNNNEKFKSKATLTVDKSSSTAYMQLSSLTSEDSAVYYCTRWAMDYWGQGTSVTASS", "VL": "DVVMTQTPLSLPVSLGDLASISCRSSQSLVHSNGNTYLHWYLQKPGQSPKLLIFKVSNRFSGVPDRFSGSGSGTDFTLKISRVEAEDLGVYFCSQSTHVPWTFGGGTKLEIKR"}, "B2": {"name": "3C6 (antibody, V domains shown)", "VH": "EVQLQQSGPELVKPGASVKIPCKASGYTFTDYNMDWVKQSHGESLEWIGDIYPNNGGTIYNQKFKDKATLTVDKSSSTAYMELRSLTSEDNAVYYCARKTGTGFDYWGQGTTLTVSS", "VL": "QIVLSQSPAILSASPGEKVTMTCRARSSVIYMHWYQQKPGSSPKPWIYATFNLASGVPARFSGSGSGTSYSLTISRVEAEDAATYYCQQWSSNPPTFGSGTKLEIKR"}, "B3": {"name": "5B4 (antibody, V domains shown)", "VH": "QVQLQQPGAELVKPGASVKLSCKASDYTFTNYWMHWVKQRPGRGLEWIGRIDPSSGGAKYNEKFKSKATLTVDKPSSTAYMEFSSLTSEDSAVYYCVRSRYDYDGWFAYWGLGTLVTVSA", "VL": "DIVMTQAAPSVPVTPGESVSISCRSSKSLLHSNGNTYLYWFLQRPGQSPQLLIYRMSNLASGVPDRFSGSGSGTAFTLRISRVEAEDVGVYYCMQHLEYPFTFGGGTKLEIKR"}, "B4": {"name": "4F1 (antibody, V domains shown)", "VH": "EVKLVESGGGLVQPGGSLSLSCAASGFTFTDYYMSWVRQPPGKALEWLGFIRHKAKGYTAEYSASVKGRFTISRDNSQSILYLQMNALRAEDSATYYCARLYYYGSPHWYFDVWGTGTTVTVSS", "VL": "QIVLTQSPAIMSASPGEKVTMTCSASSSVSYMHWYQQKSGTSPKRWIYDTSKLASGVPARFSGSGSGTSYSLTISSMEAEDAATYYCQQWSSNPPTFGSGTELEIKR"}, "B5": {"name": "5D9 (antibody, V domains shown)", "VH": "QVQLQQSGAELARPGASVKLSCKASDDTFINYGINWVKQRTGQGLEWIGETFPSNGNTFYNEKFKGKATLTADRSSSTTYMELRSLTSEDAAVYFCARHSNLPYFDHWGQGSTLTVSS", "VL": "DIVMTQSPSSLSVSAGEKVTMSCKSSQSLLNSGNQKNYLAWYQQKPGQPPKLLIYGASTRESGVPERFTGSGSGTDFTLTISSVQAEDLAVYYCQNDHSYPFTFGGGTNLEIKR"}, "B6": {"name": "ID12 (antibody, V domains shown)", "VH": "QVQLQQSGPELVKPGASVKLSCKTSGYTFTSYDINWVKQRPGQGLEWIGWIYPSDGSTKFNEKFKGMATLTVDTSSSTAYMELHSLTSEDSTVYFCARGLWYYGGGVDYWGQGTSVTVSS", "VL": "DAVMTQTPLSLPVSLGDQASISCRSTQSLEDSNGNTYLNWYLQKPGQSPQLLIYRVSNRFSGVLDRFSGSGSGTDFTLKISRVEAEDLGVYFCLQVTHVPYTFGGGTKLEIKR"}, "B7": {"name": "4E4 (antibody, V domains shown)", "VH": "QVQLQQPGAELVKPGASVKLSCKASGYTFTSYWMHWVKQRPGQGLEWIGMIHPNSGSTNYNEKFKNKATLTVDKSSSTAYMQLSSLTSEDSAVYYCAPRMFDDYDDYWGQGTTLTVSS", "VL": "QIVLTQSPAIMSASLGERVTMTCTASSSVSSSYLHWYQQKPGSSPKLWIYSTSNLASGVPVRFSGSGSGTSYSLTISRMEAEDAATYYCHHYHRSPYTFGGGTKLEIKR"}, "B8": {"name": "5A5 (antibody, V domains shown)", "VH": "QVQLQQSGAELAKPGASVRLSCQASGYTFTTYWMHWVKQRPRQGLEWIGYIIPSSGYSKCHQKFKDKATLTADKSSNTASMQLSSLTYEDSAVYYCARSTSGYPYYFDYWGQGTTLTVSS", "VL": "ENVLTQSPAIMSASPGEKVTMTCSATSSVSYMHWYQQKSSTSPKLWIYDTSKLASGVPGRFSGSGSGNSYSLTISSMEAEDVATYYCFQGSWYPLTFGAGTKLELKR"}, "B9": {"name": "anti-TSG-6 antibody of SEQ ID NO: 1 and SEQ ID NO: 2 (first entry of Table 1, clone name not printed) (antibody, V domains shown)", "VH": "QVRLQQSGAELAKPGASVKLSCKASGYTFTSYWMHWVKQRPGQGLEWIGYIIPSSGYTKNKQNFKDKATLTADKSSSTAYMQLSNLTYEDSAVYSCARSDGSYPYYFDYWGQGTTLTVSS", "VL": "B8 VL with T26S, W92G, A99S, L105I"}, "B10": {"name": "3E1 (antibody, V domains shown)", "VH": "B8 VH with T31S, S58T, N77S, S80Y, Y109S", "VL": "B8 VL with K18R, Y31F"}, "B11": {"name": "1A9 (antibody, V domains shown)", "VH": "EVQLQQSGPELVKPGASVKISCKASGYTFTDYYMNWVKQSHEKSLEWIGDINPNNGGTSYNQKFMGKATLTVDKSSRTAYMELRSLTSEDSTVYYCARWGIYDRFTYWGQGTLVSVSA", "VL": "DIKMTQSPSSMYASLGERVTIACKASQDINSFLSWFQQKPGKSPKTLIYRANRLVDGVPSRFSGSGSGQDYSLTISSLEYEDMGIYYCLQYDEFPLTFGAGTKLELKR"}, "B12": {"name": "1D7 (antibody, V domains shown)", "VH": "B11 VH with E42G, S59T, M65K, R77S, T92A, Y102F, L113V, S115T", "VL": "B11 VL with L15R, A22T"}},
  "note": "Residue numbers refer to the chain shown, from its start.",
  "data": [
    {"biological_target": "T1, Recombinant human TSG-6 (R&D Biosystems, catalog #2104-TS) (human, UniProt P98066 18-277)", "T1 sequence (P98066 18-277)": "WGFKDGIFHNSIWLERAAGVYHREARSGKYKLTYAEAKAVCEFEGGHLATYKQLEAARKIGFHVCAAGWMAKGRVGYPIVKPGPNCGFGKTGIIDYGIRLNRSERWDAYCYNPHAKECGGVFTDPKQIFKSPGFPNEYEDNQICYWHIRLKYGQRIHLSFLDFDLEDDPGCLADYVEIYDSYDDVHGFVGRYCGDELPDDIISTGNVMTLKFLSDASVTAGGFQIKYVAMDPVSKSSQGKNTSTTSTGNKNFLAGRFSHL", "test": "inhibition of HC-HA transesterase activity; HC-HA transesterase", "units": {"IC50": "nM"}, "values": [
      {"binder": "B1", "IC50": "> 3000"},
      {"binder": "B2", "IC50": 12},
      {"binder": "B3", "IC50": 68},
      {"binder": "B4", "IC50": 44},
      {"binder": "B5", "IC50": 4},
      {"binder": "B6", "IC50": 36},
      {"binder": "B7", "IC50": 140},
      {"binder": "B8", "IC50": 8},
      {"binder": "B9", "IC50": 19},
      {"binder": "B10", "IC50": 10},
      {"binder": "B11", "IC50": 375},
      {"binder": "B12", "IC50": 1100}
    ]},
    {"biological_target": "T1, Recombinant human TSG-6 (R&D …)", "test": "inhibition of HA binding to TSG-6; HA binding", "units": {"IC50": "nM"}, "values": [
      {"binder": "B1", "IC50": 290},
      {"binder": "B2", "IC50": 10},
      {"binder": "B3", "IC50": "> 667"},
      {"binder": "B4", "IC50": "> 667"},
      {"binder": "B5", "IC50": "~1400"},
      {"binder": "B6", "IC50": "> 667"},
      {"binder": "B7", "IC50": "> 667"},
      {"binder": "B8", "IC50": "> 667"},
      {"binder": "B9", "IC50": "> 2000"},
      {"binder": "B10", "IC50": "> 667"},
      {"binder": "B11", "IC50": 32},
      {"binder": "B12", "IC50": 47}
    ]}
  ]
}
